One molecule from article PMC10925046, “TERRA-LSD1 phase separation promotes R-loop formation for telomere maintenance in ALT cancer cells” can be followed below.

Series [1] deals with LSD1 deltaIDR 3KE;CoREST (human;human?, UniProt O60341;Q9UKL0 171-852;289-485, K355E;K357E;K359E|). Put plainly: pull-down; EMSA: 4 C, 5 min, 0.75% agarose in 1x THE pH 7.4 (34 mM Tris, 66 mM HEPES, 0.1 mM EDTA) + 0.1 M K acetate, RNA folded in 10 mM Tris pH 7.4, 100 mM KCl, 1 mM TCE. In general terms: A gel shift assay detects complexes by their altered migration in electrophoresis.

Series [2] deals with LSD1 deltaIDR;CoREST (human;human?, UniProt O60341;Q9UKL0 171-852;289-485, |). Described as above.

Take UUAGGGUUAGGGUUAGGGUUAGGGUUAGGGUUAGGGUUAGGGUUAGGG (structured_RNA) [biotin-TERRA (UUAGGG)8]: the results for the binding result in series [1] and in series [2] were “no binding” and “binds”, respectively.
